Data on 56 variants can be found in publication PMC12102759 (2025).

B1: AMOTL2 peptide 66-81 (Angiomotin-like protein 2), 16-mer library wild type / TNKS ANK (TNKS 12 ANK repeats, residues 174-649) (parent complex)
chain 1: LQQATRQEPQGQEHQG
chain 2: TGVPAVSGALRELLEACRNGDVSRVKRLVDAANVNAKDMAGRKSSPLHFAAGFGRKDVVEHLLQMGANVHARDDGGLIPLHNACSFGHAEVVSLLLCQGADPNARDNWNYTPLHEAAIKGKIDVCIVLLQHGADPNIRNTDGKSALDLADPSAKAVLTGEYKKDELLEAARSGNEEKLMALLTPLNVNCHASDGRKSTPLHLAAGYNRVRIVQLLLQHGADVHAKDKGGLVPLHNACSYGHYEVTELLLKHGACVNAMDLWQFTPLHEAASKNRVEVCSLLLSHGADPTLVNCHGKSAVDMAPTPELRERLTYEFKGHSLLQAAREADLAKVKKTLALEIINFKQPQSHETALHCAVASLHPKRKQVTELLLRKGANVNEKNKDFMTPLHVAAERAHNDVMEVLHKHGAKMNALDTLGQTALHRAALAGHLQTCRLLLSYGSDPSIISLQGFTAAQMGNEAVQQILSESTPIRTSD

In the experiment the parent is B1. The experiment is described as follows: proteomic peptide phage display deep mutational scan (ProP-PD DMS): M13 P8 16-mer library selected against immobilised GST-tagged bait for four days (rounds), NGS of the eluted pools per day and pseudo-replica; bait immobilised on MaxiSorp plates (10 µg), library pre-cleared on GST, 2 h binding at 4 °C, five washes; one round per day, days 1-4; value from days 2 and 3.
Consider chain 1 LQAATRQEPQGQEHQG [chain 1 Q3A], for which the screen value was 0.0023 average fractional NGS count over selection days 2 and 3 (reads of this peptide / all reads for the bait, averaged over ….
The result for chain 1 LQSATRQEPQGQEHQG [chain 1 Q3S] reads 0.000813 average fractional NGS count over selection days 2 and 3 (reads of this peptide / all reads for the bait, averaged over ….
The result for chain 1 LQPATRQEPQGQEHQG [chain 1 Q3P] reads 0.000624 average fractional NGS count over selection days 2 and 3 (reads of this peptide / all reads for the bait, averaged over …; that for chain 1 LQFATRQEPQGQEHQG [chain 1 Q3F], 0.000606 average fractional NGS count over selection days 2 and 3 (reads of this peptide / all reads for the bait, averaged over ….
The result for chain 1 LQGATRQEPQGQEHQG [chain 1 Q3G] reads 0.000192 average fractional NGS count over selection days 2 and 3 (reads of this peptide / all reads for the bait, averaged over …; that for chain 1 LQWATRQEPQGQEHQG [chain 1 Q3W], 0.000779 average fractional NGS count over selection days 2 and 3 (reads of this peptide / all reads for the bait, averaged over …; that for chain 1 LQYATRQEPQGQEHQG [chain 1 Q3Y], 0.000305 average fractional NGS count over selection days 2 and 3 (reads of this peptide / all reads for the bait, averaged over ….
For the variant chain 1 LQVATRQEPQGQEHQG [chain 1 Q3V], the screen value is 0.000386 average fractional NGS count over selection days 2 and 3 (reads of this peptide / all reads for the bait, averaged over ….
Take chain 1 LQQATRQEPQGQEHIG [chain 1 Q15I]: the screen value is 0.00255 average fractional NGS count over selection days 2 and 3 (reads of this peptide / all reads for the bait, averaged over ….
With chain 1 LQQATRQEPQGQEHSG [chain 1 Q15S], the screen value is 0.00112 average fractional NGS count over selection days 2 and 3 (reads of this peptide / all reads for the bait, averaged over ….
The result for chain 1 LQQATRQEPQGQEHGG [chain 1 Q15G] reads 0.000723 average fractional NGS count over selection days 2 and 3 (reads of this peptide / all reads for the bait, averaged over …; that for chain 1 LQQATRQEPQGQEHVG [chain 1 Q15V], 0.000269 average fractional NGS count over selection days 2 and 3 (reads of this peptide / all reads for the bait, averaged over …; that for chain 1 LQQATRQEPQGQEHWG [chain 1 Q15W], 0.000288 average fractional NGS count over selection days 2 and 3 (reads of this peptide / all reads for the bait, averaged over ….
The result for chain 1 LQQATRQEPQGQEHTG [chain 1 Q15T] reads 0.000883 average fractional NGS count over selection days 2 and 3 (reads of this peptide / all reads for the bait, averaged over …; that for chain 1 LQQATRQEPQGQEHLG [chain 1 Q15L], 0.0017 average fractional NGS count over selection days 2 and 3 (reads of this peptide / all reads for the bait, averaged over …; that for chain 1 LQQATRQEPQGQEHNG [chain 1 Q15N], 0.00022 average fractional NGS count over selection days 2 and 3 (reads of this peptide / all reads for the bait, averaged over ….
Take chain 1 LQQATRQEPQGQEHPG [chain 1 Q15P]: the screen value is 0.000799 average fractional NGS count over selection days 2 and 3 (reads of this peptide / all reads for the bait, averaged over ….
For chain 1 LQQATRQEPQGQEHMG [chain 1 Q15M], the screen value is 0.00112 average fractional NGS count over selection days 2 and 3 (reads of this peptide / all reads for the bait, averaged over ….
chain 1 LQQATRQEPQGQEHEG [chain 1 Q15E]: the screen value was 0.000569 average fractional NGS count over selection days 2 and 3 (reads of this peptide / all reads for the bait, averaged over ….
With chain 1 LDQATRQEPQGQEHQG [chain 1 Q2D], the screen value was 0.000375 average fractional NGS count over selection days 2 and 3 (reads of this peptide / all reads for the bait, averaged over ….
The result for chain 1 LYQATRQEPQGQEHQG [chain 1 Q2Y] reads 0.000109 average fractional NGS count over selection days 2 and 3 (reads of this peptide / all reads for the bait, averaged over …; that for chain 1 LPQATRQEPQGQEHQG [chain 1 Q2P], 0.000458 average fractional NGS count over selection days 2 and 3 (reads of this peptide / all reads for the bait, averaged over ….
The result for chain 1 LGQATRQEPQGQEHQG [chain 1 Q2G] reads 0.00015 average fractional NGS count over selection days 2 and 3 (reads of this peptide / all reads for the bait, averaged over …; that for chain 1 LHQATRQEPQGQEHQG [chain 1 Q2H], 0.00198 average fractional NGS count over selection days 2 and 3 (reads of this peptide / all reads for the bait, averaged over …; that for chain 1 LSQATRQEPQGQEHQG [chain 1 Q2S], 0.00082 average fractional NGS count over selection days 2 and 3 (reads of this peptide / all reads for the bait, averaged over ….
The result for chain 1 LIQATRQEPQGQEHQG [chain 1 Q2I] reads 0.000122 average fractional NGS count over selection days 2 and 3 (reads of this peptide / all reads for the bait, averaged over …; that for chain 1 LLQATRQEPQGQEHQG [chain 1 Q2L], 0.00083 average fractional NGS count over selection days 2 and 3 (reads of this peptide / all reads for the bait, averaged over …; that for chain 1 LAQATRQEPQGQEHQG [chain 1 Q2A], 0.000379 average fractional NGS count over selection days 2 and 3 (reads of this peptide / all reads for the bait, averaged over ….
For the variant chain 1 LTQATRQEPQGQEHQG [chain 1 Q2T], the screen value was 0.00025 average fractional NGS count over selection days 2 and 3 (reads of this peptide / all reads for the bait, averaged over ….
The result for chain 1 LKQATRQEPQGQEHQG [chain 1 Q2K] reads 0.000265 average fractional NGS count over selection days 2 and 3 (reads of this peptide / all reads for the bait, averaged over ….
For the variant chain 1 LQQATRQETQGQEHQG [chain 1 P9T], the screen value was 0.000277 average fractional NGS count over selection days 2 and 3 (reads of this peptide / all reads for the bait, averaged over ….
The result for chain 1 LQQATRQEPDGQEHQG [chain 1 Q10D] reads 0.00111 average fractional NGS count over selection days 2 and 3 (reads of this peptide / all reads for the bait, averaged over …; that for chain 1 LQQATRQEPWGQEHQG [chain 1 Q10W], 0.000745 average fractional NGS count over selection days 2 and 3 (reads of this peptide / all reads for the bait, averaged over ….
The result for chain 1 LQQATRQEPSGQEHQG [chain 1 Q10S] reads 0.000273 average fractional NGS count over selection days 2 and 3 (reads of this peptide / all reads for the bait, averaged over …; that for chain 1 LQQATRQEPEGQEHQG [chain 1 Q10E], 0.000182 average fractional NGS count over selection days 2 and 3 (reads of this peptide / all reads for the bait, averaged over …; that for chain 1 LQQATRQEPHGQEHQG [chain 1 Q10H], 0.000277 average fractional NGS count over selection days 2 and 3 (reads of this peptide / all reads for the bait, averaged over ….
The result for chain 1 LQQATRQEPYGQEHQG [chain 1 Q10Y] reads 0.00045 average fractional NGS count over selection days 2 and 3 (reads of this peptide / all reads for the bait, averaged over …; that for chain 1 YQQATRQEPQGQEHQG [chain 1 L1Y], 0.000392 average fractional NGS count over selection days 2 and 3 (reads of this peptide / all reads for the bait, averaged over …; that for chain 1 IQQATRQEPQGQEHQG [chain 1 L1I], 0.000531 average fractional NGS count over selection days 2 and 3 (reads of this peptide / all reads for the bait, averaged over ….
For the variant chain 1 QQQATRQEPQGQEHQG [chain 1 L1Q], the screen value is 0.00176 average fractional NGS count over selection days 2 and 3 (reads of this peptide / all reads for the bait, averaged over ….
For the variant chain 1 VQQATRQEPQGQEHQG [chain 1 L1V], the screen value was 0.00393 average fractional NGS count over selection days 2 and 3 (reads of this peptide / all reads for the bait, averaged over ….
The result for chain 1 DQQATRQEPQGQEHQG [chain 1 L1D] reads 0.00194 average fractional NGS count over selection days 2 and 3 (reads of this peptide / all reads for the bait, averaged over …; that for chain 1 HQQATRQEPQGQEHQG [chain 1 L1H], 0.00276 average fractional NGS count over selection days 2 and 3 (reads of this peptide / all reads for the bait, averaged over ….
The result for chain 1 WQQATRQEPQGQEHQG [chain 1 L1W] reads 0.000562 average fractional NGS count over selection days 2 and 3 (reads of this peptide / all reads for the bait, averaged over …; that for chain 1 MQQATRQEPQGQEHQG [chain 1 L1M], 0.000626 average fractional NGS count over selection days 2 and 3 (reads of this peptide / all reads for the bait, averaged over ….
The result for chain 1 GQQATRQEPQGQEHQG [chain 1 L1G] reads 0.000254 average fractional NGS count over selection days 2 and 3 (reads of this peptide / all reads for the bait, averaged over …; that for chain 1 PQQATRQEPQGQEHQG [chain 1 L1P], 0.000936 average fractional NGS count over selection days 2 and 3 (reads of this peptide / all reads for the bait, averaged over ….
chain 1 LQQATRNEPQGQEHQG [chain 1 Q7N]: the screen value was 0.000208 average fractional NGS count over selection days 2 and 3 (reads of this peptide / all reads for the bait, averaged over ….
The result for chain 1 LQQATRTEPQGQEHQG [chain 1 Q7T] reads 0.000305 average fractional NGS count over selection days 2 and 3 (reads of this peptide / all reads for the bait, averaged over …; that for chain 1 LQQATRPEPQGQEHQG [chain 1 Q7P], 0.000611 average fractional NGS count over selection days 2 and 3 (reads of this peptide / all reads for the bait, averaged over ….
The result for chain 1 LQQATRMEPQGQEHQG [chain 1 Q7M] reads 0.00184 average fractional NGS count over selection days 2 and 3 (reads of this peptide / all reads for the bait, averaged over …; that for chain 1 LQQATRLEPQGQEHQG [chain 1 Q7L], 0.00305 average fractional NGS count over selection days 2 and 3 (reads of this peptide / all reads for the bait, averaged over ….
The result for chain 1 LQQATRAEPQGQEHQG [chain 1 Q7A] reads 0.000124 average fractional NGS count over selection days 2 and 3 (reads of this peptide / all reads for the bait, averaged over ….
Consider chain 1 LQQATRHEPQGQEHQG [chain 1 Q7H], for which the screen value is 0.00159 average fractional NGS count over selection days 2 and 3 (reads of this peptide / all reads for the bait, averaged over ….
In the case of chain 1 LQQATRYEPQGQEHQG [chain 1 Q7Y], the screen value was 0.000137 average fractional NGS count over selection days 2 and 3 (reads of this peptide / all reads for the bait, averaged over ….
On to chain 1 LQQATRFEPQGQEHQG [chain 1 Q7F], for which the screen value was 0.000322 average fractional NGS count over selection days 2 and 3 (reads of this peptide / all reads for the bait, averaged over ….
